Assay results as given in the DeepSol protein solubility set.

Experiment: soluble on expression in E. coli; label from the status in PepcDB or PDB records

Soluble on expression in E. coli, not soluble:
MGSDKIHHHHHHMRLVNIAYVGEGEVLARPLVSPNGKVLLQAGVKLTRNYIDKLSRLGFDTMFIEDDTFQDVEIYSAVSIKTREAAYASLENLSKNLNEAQPHTVNLGEVKKAVQNIIADLLYSKDMLGNVMEIQGYDDYTFHHSVNTTIIALIMGISMGWHNGKLLELGMGVLMHDVGKIKIPSEILNKRGPLTPEEFAEIKKHAEYGFEILRKNHDINLLSAHIALQHQERWDGSGYPRGLKGNQIHEYGRLAAVADVYEALTSKRVYRNALQPYEAYEYVIANSDTLFEPKVVQNTFSKCITPYPTGTGVRLTNGLRGNVVKQNFTFPTRPYVRMTHEGEIRLIAPIDYNLAEHPSLMIVGIENK
MGSDKIHHHHHHMRMERVVERVAVTGAEAVANAMRQIEPDVVAAYPITPQTPIVEYFARFVADGVVRTEMIPVESEHSAMSAVVGAAAAGARAMTATSANGLALMHEIVYIAASYRLPIVMPVVNRALSGPINIHCDHSDAMAERDSGWIQLFAETNQEAYDFTILAVRLAEHEDVRLPVMVNLDGFILSHGVEPVEFYPDELVKKFVGELKPMYPLLDTEHPVTWGPLDLYDYYFEHKRQQIEAMENVKKVFPEIAKEFEETFGRKYWFVEPYRMEDAEHVMVALGSTNSTIKYVVDELREEGYKVGSLKIWMFRPFPKEQLQELLNGRKSVVVLDRAVSFGAEAPLYEAVKSALYEVAARPMLGSYVYGLGGRDIKPEHIRKAFEDAINGNLIADEQRYLGLRE
MGSDKIHHHHHHMRSFTQSSKPIFKDHIVQQSSLVANNYRFIGPRLIDNTPVLFGSFSVVQLNPHLILHTADVINRHNMKTQNLLDSAIKLAIVVSGNAHISFGHQELHLGESQPASLIALTEPTMFTRIGKRDEYERTITLTFDREWLYGNMMDTVGDWQAIHDFTQTHLATHLWTPSRQARAIALQTLDANPCQTPLQRLYLETQCMSLIIEAFTSLTASVAQEKSSGVTLRGYHRIQQIRDMLESGSADHLSMSEIAKSVNMSESTLQRHFRQTFNMSVFEYLRNCRLQRAMLALQKDGIGIAQAASIAGYNSPANFATALRRAFGITPGQLKDRF
MGSDKIHHHHHHMRTFRLVIACPDRVGIVAKVSNFLASHNGWITEASHHSDNLSGWFFMRHEIRADTLPFDLDGFREAFTPIAEEFSMDWRITDSAQKKRVVLMASRESHCLADLLHRWHSDELDCDIACVISNHQDLRSMVEWHDIPYYHVPVDPKDKEPAFAEVSRLVGHHQADVVVLARYMQILPPQLCREYAHQVINIHHSFLPSFVGAKPYHQASLRGVKLIGATCHYVTEELDAGPIIEQDVVRVSHRDSIENMVRFGRDVEKMVLARGLRAHLEDRVLVHDNKTVVFD
MGSDKIHHHHHHMRTMVAVRLRNLVESDRERLLIWRNSPDVSAYMYSDHKIGHEEHDHWFDVARHDPRRRYWIIEADGEPVGLANLADIDLVHRRCAWAYYLASPKVRGLGVGSFVEFQIIEYVFNQLHLNKLWCEVLISNESVWRLHELYGFQREALFRQHVMKQGHEVDVIGLGLLASDWAARRDAMAERLCAKGYTIPDLTCRAA
MGSDKIHHHHHHMRVAIIGMGTAGVSVLRELVKHPKFNQLDIDLYDDKVNMGQGVPFQNDSSELLINMPSKKMSLNLDDETEFWKWYKQQTDFNFDEPAYLPRFVFGHYMKSYLSMFTKKYPNISTNYNKVQEIYTNSNIDETNLTYYICTTNSEQSWQAYDYVFLTCGTFAYHDPYNLKGKKGYIATPYPTYNTLDEVNELDDIAIIGTGLASLDVVRYVAAHHPKLPITMTSRSAHLPSVRGTMIDVTFKYLTKDKLNDIKKHHFGNAPLDTLVSLFLKECAEYDIDFKKLVYRRTGNHIADLKYDLARPTEMGIFQSMIEHLKENLNWIWNSLSIEDQHQFNQKYSKMIQLNSNPMPPRTAELIIELIENKSLILKKDLEDVKHDGKLYYFSYKNQESVDIYNVVINATGAKSHLNELDQDDQLIKNLENRQIVQAHPMGGIQIIPETNQVISPRFGTLTNMIAIGQMTNGVNKLRNGVKMIVEQVAHKVSQLYDALESNEQQQRSDNQ
MGSDKIHHHHHHMRYSPEALIAFVETVSCGSFSAAARRLRKSQSTISIAIAHLEADLGFSLFDRSSRQPVLTEEGKRVLSYVQAILSASDRLDEVALTLSGETEARLTFVLSDTLHPDSLEELMAQFDRQFPHTEFECLIGENDDVIDLLQKGRAQIGLIEARDDYPTDIGAARLPVQSWMGVYVATTHPLASQTNLQWEQLHTWRELRLNTYLDSNANITRGPAWSAPNYLLLLSMAVQGFGWCVLPCALVEEFAAEKPLAQLDVPGWPRAIAIDLLWNKKTPPGTAGNWLRYHLQQK
MGSDKIHHHHHHMSAFNAVQVGRRVLAVEADALRVLADSLGEAFANAVETIFNAKGRVVCTGMGKSGHVARKIAATLASTGTQAMFVHPAEASHGDLGMIGPDDVVLALSKSGAGRELADTLAYAKRFSIPLIAMTAVADSPLGQAGDILLLLPDAPEGTAEVNAPTTSTTLQIALGDAIAVALLERRGFTASDFRVFHPGGKLGAMLRTVGDLMHGADELPLVAADAAMPDALLVMSEKRFGAVGVVDNAGHLAGLITDGDLRRHMDGLLTHTAGEVMTHAPLTIGPGALAAEALKVMNERRITVLFVVERERPVGILHVHDLLRAGVI
MGSDKIHHHHHHMSAIAERSKPSEHMPVLPEFTPLERAIINRLQYGLPLTRTPYKDVADELGVSEVTLLKHLQALLDNGTLTRFGPMFHAGEMGGGLTLAAMRIPEQDFANVTEQVNSFPEVAHNYRREHELNMWFVLATETPEGITETIQRIESLTGYTVYNMPKEQEFHVHLHFEV
MGSDKIHHHHHHMSAQTRPAPGRHTIRVSEDDCGLGQFGGGAWLSDAALWPSDPSTGRPMTPIVMLTDLFLPSVWLADDMAVTVFAALGRESDAYNRTALRTFTIHQQSELEKIDAGHSKVVLHRRAAREMVRETVMLPRHFVGLQPFDERDAEEEAEDADNGAGMSKQLGRPYWLQDPIHAHPRHYFLSQFVESDLRQQDPAYDGLFADGTGYLFAEQRAKVLREGDTAGYFFIQFT
MGSDKIHHHHHHMSAYPPLNSLRIFEAAARLESFSAAAGELFVTHGAVSKQIKQLEDWLGVQLFERSGGRVRLTDAGWRYLVQVQDGLDLIANATSQLLQPNRQRRLTINSTPTFAAFWLLPRLAGFRSQLPELELHLVTSDRDLSRLDAPFDVAIRRGPGDWPGHIAKPFLKEWELPLCSPALLSRQPLAQAADLTQHTLLHADTRPTAWPRWLTLAGAPELKPACSLHFDKFSLALQAAVDGLGVVLGPLPMAHELIAAGKLVSPLPGPVVTVRDYCWVVPRMSAEDATVATFCRWLEGEAEKAGLSGVESG
MGSDKIHHHHHHMSDFSPIAWTEGMFLRPQHMQQQERFLQHQQARTAKNNNPLAWGVVSYEVNYGLLPLGQFGLDRIDCVFPDNTLACLPEQSPLPTAITVPAGTLDQLVYLVLPVAKSNGMNISSSEQNQITRYSYEDHNIVDTSVGSDAMEVLQVAKLDCRLKLQSEDRSGYVSIAIARVIDVSEEGVIRLDKKFIPACIGIEHIKTLMNMTTEVTGMINQRAEAIAGRLSQSQGTSSSIADFLMLQLLNKYQPIFEHYGVVNHIHPELLFRTLISFSGELSTFSSPNKRPPKFPVYQHDNLTYVFSNTMVIVNHGLSSVLEQSATELILEKTKFGVYFSTIADKSMLDNAEFILAVKANVPHDELRQRLPSQIKIGSVETIRELVNNQLPGIGISNLPVAPRQVPYHAGYHYFQLDKNNSHWIKLKSSGGVAMHISGAYPELQIELWAVSI
MGSDKIHHHHHHMSDIQLSLLNDFQRGFPLTSTPFDAIAQRLGLDVEALLDTLRRLTREGVVSRVGAVFRPNRVGVSTLAAMAVPEGRLDEVARLVSARPEVNHNYEREHRFNLWFVAAAANPAQLEQALHDIEQQTGLAAMRLPMVQDYHIDLGFDLRRSVGLTDRHQQKAAPSRALELDALDYVLVEAIQEGLPLVARPYAEVAAFIGTSEADVLIRLGRLLDHGVIKRLGIVVRHHELGFRANAMVVWNIPDEQVDEFGRCVGASGLVNLCYQRPRRLPEWPYNLFCMIHGKDRDAVLEHLDHLRDQCGLTDFPCEVLFSKRRFKQTGARYLAAQPKAAAEAT
